Measured values reported in patent publication US20250163162A1.
Each block holds one binder with its values, some of them ahead of it.

Molecular target: T1, IL10Rα and IL2Rγ on human primary cells (CD8 T cells, CD4 T cells, monocytes) (human) (UniProt Q13651)
T1 sequence (looked up) 1: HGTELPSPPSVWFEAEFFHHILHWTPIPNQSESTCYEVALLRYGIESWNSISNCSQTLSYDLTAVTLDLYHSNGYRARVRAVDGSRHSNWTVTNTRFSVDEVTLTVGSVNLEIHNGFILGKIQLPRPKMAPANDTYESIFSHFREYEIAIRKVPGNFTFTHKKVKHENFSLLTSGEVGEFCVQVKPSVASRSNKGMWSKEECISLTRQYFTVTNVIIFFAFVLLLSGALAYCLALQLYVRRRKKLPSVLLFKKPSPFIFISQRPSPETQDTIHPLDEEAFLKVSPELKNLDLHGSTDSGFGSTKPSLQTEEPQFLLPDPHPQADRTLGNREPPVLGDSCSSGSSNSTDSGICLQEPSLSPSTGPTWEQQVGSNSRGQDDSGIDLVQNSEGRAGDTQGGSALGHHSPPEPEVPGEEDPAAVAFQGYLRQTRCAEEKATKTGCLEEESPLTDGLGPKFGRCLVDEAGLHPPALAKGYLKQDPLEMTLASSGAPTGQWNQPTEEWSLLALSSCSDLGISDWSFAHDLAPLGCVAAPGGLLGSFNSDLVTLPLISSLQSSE
T1 sequence (looked up) 2: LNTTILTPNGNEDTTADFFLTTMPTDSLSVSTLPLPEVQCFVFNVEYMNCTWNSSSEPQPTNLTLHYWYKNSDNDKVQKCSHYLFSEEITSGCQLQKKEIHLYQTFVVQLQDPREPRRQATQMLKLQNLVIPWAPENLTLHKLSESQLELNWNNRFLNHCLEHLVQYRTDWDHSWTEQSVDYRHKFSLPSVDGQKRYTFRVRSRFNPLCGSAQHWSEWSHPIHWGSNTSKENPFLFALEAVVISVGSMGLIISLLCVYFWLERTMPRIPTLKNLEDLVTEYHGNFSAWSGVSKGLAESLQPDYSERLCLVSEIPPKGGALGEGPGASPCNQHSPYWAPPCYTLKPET
Experiment: cell-based or functional assay

pSTAT3 (MFI) in CD4 T cells at 0.0001 µM: 12200 MFI
pSTAT3 (MFI) in CD4 T cells at 0.001 µM: 12900 MFI
pSTAT3 (MFI) in CD4 T cells at 0.01 µM: 12500 MFI
pSTAT3 (MFI) in CD4 T cells at 0.1 µM: 11000 MFI
pSTAT3 (MFI) in CD4 T cells at 1 µM: 12100 MFI
pSTAT3 (MFI) in CD4 T cells at 10 µM: 11800 MFI
pSTAT3 (MFI) in CD4 T cells at 100 µM: 9040 MFI
pSTAT3 (MFI) in CD8 T cells at 0.0001 µM: 7380 MFI
pSTAT3 (MFI) in CD8 T cells at 0.001 µM: 7740 MFI
pSTAT3 (MFI) in CD8 T cells at 0.01 µM: 7800 MFI
pSTAT3 (MFI) in CD8 T cells at 0.1 µM: 6780 MFI
pSTAT3 (MFI) in CD8 T cells at 1 µM: 7720 MFI
pSTAT3 (MFI) in CD8 T cells at 10 µM: 7490 MFI
pSTAT3 (MFI) in CD8 T cells at 100 µM: 6200 MFI
pSTAT3 (MFI) in monocytes at 0.0001 µM: 3970 MFI
pSTAT3 (MFI) in monocytes at 0.001 µM: 4600 MFI
pSTAT3 (MFI) in monocytes at 0.01 µM: 4420 MFI
pSTAT3 (MFI) in monocytes at 0.1 µM: 4420 MFI
pSTAT3 (MFI) in monocytes at 1 µM: 4480 MFI
pSTAT3 (MFI) in monocytes at 10 µM: 4330 MFI
pSTAT3 (MFI) in monocytes at 100 µM: 4140 MFI
B1: hIL10Ra_VHH14-hIL2Rg_VHH19, no linker, tag his (bispecific antibody, not shown: small tags and cut ends)
chain: QVQLQESGGGSVQAGGSLRLSCGASGYTYSSYCMGWFRQVPGKEREGVAVIDSDGSTSYADSVKGRFTISKDNGKNTLYLQMNSLKPEDTAMYYCAADLGHYRPPCGVLYLGMDYWGKGTQVTVSSQVQLQESGGGSVQAGGSLRLSCTASGFTFDDREMNWYRQAPGNECELVSTISSDGSTYYADSVKGRFTISQDNAKNTVYLQMDSVKPEDTAVYYCAADFMIAIQAPGAGCWGQGTQVTVSS

pSTAT3 (MFI) in CD4 T cells at 0.0001 µM: 12600 MFI
pSTAT3 (MFI) in CD4 T cells at 0.001 µM: 12600 MFI
pSTAT3 (MFI) in CD4 T cells at 0.01 µM: 12500 MFI
pSTAT3 (MFI) in CD4 T cells at 0.1 µM: 11300 MFI
pSTAT3 (MFI) in CD4 T cells at 1 µM: 13600 MFI
pSTAT3 (MFI) in CD4 T cells at 10 µM: 14800 MFI
pSTAT3 (MFI) in CD4 T cells at 100 µM: 16000 MFI
pSTAT3 (MFI) in CD8 T cells at 0.0001 µM: 7540 MFI
pSTAT3 (MFI) in CD8 T cells at 0.001 µM: 7890 MFI
pSTAT3 (MFI) in CD8 T cells at 0.01 µM: 7800 MFI
pSTAT3 (MFI) in CD8 T cells at 0.1 µM: 7330 MFI
pSTAT3 (MFI) in CD8 T cells at 1 µM: 9320 MFI
pSTAT3 (MFI) in CD8 T cells at 10 µM: 12300 MFI
pSTAT3 (MFI) in CD8 T cells at 100 µM: 13200 MFI
pSTAT3 (MFI) in monocytes at 0.0001 µM: 4370 MFI
pSTAT3 (MFI) in monocytes at 0.001 µM: 4740 MFI
pSTAT3 (MFI) in monocytes at 0.01 µM: 4420 MFI
pSTAT3 (MFI) in monocytes at 0.1 µM: 4810 MFI
pSTAT3 (MFI) in monocytes at 1 µM: 5690 MFI
pSTAT3 (MFI) in monocytes at 10 µM: 6690 MFI
pSTAT3 (MFI) in monocytes at 100 µM: 6030 MFI
B2: hIL10Ra_VHH14-hIL2Rg_VHH19, linker GGGS, tag Fc (Fc fusion, not shown: a dimerising Fc or GST)
chain: QVQLQESGGGSVQAGGSLRLSCGASGYTYSSYCMGWFRQVPGKEREGVAVIDSDGSTSYADSVKGRFTISKDNGKNTLYLQMNSLKPEDTAMYYCAADLGHYRPPCGVLYLGMDYWGKGTQVTVSSGGGSQVQLQESGGGSVQAGGSLRLSCTASGFTFDDREMNWYRQAPGNECELVSTISSDGSTYYADSVKGRFTISQDNAKNTVYLQMDSVKPEDTAVYYCAADFMIAIQAPGAGCWGQGTQVTVSS

pSTAT3 (MFI) in CD4 T cells at 0.0001 µM: 11900 MFI
pSTAT3 (MFI) in CD4 T cells at 0.001 µM: 12100 MFI
pSTAT3 (MFI) in CD4 T cells at 0.01 µM: 11700 MFI
pSTAT3 (MFI) in CD4 T cells at 0.1 µM: 9670 MFI
pSTAT3 (MFI) in CD4 T cells at 1 µM: 9590 MFI
pSTAT3 (MFI) in CD4 T cells at 10 µM: 11400 MFI
pSTAT3 (MFI) in CD4 T cells at 100 µM: 14700 MFI
pSTAT3 (MFI) in CD8 T cells at 0.0001 µM: 7210 MFI
pSTAT3 (MFI) in CD8 T cells at 0.001 µM: 7460 MFI
pSTAT3 (MFI) in CD8 T cells at 0.01 µM: 7200 MFI
pSTAT3 (MFI) in CD8 T cells at 0.1 µM: 6580 MFI
pSTAT3 (MFI) in CD8 T cells at 1 µM: 6500 MFI
pSTAT3 (MFI) in CD8 T cells at 10 µM: 7930 MFI
pSTAT3 (MFI) in CD8 T cells at 100 µM: 9970 MFI
pSTAT3 (MFI) in monocytes at 0.0001 µM: 4150 MFI
pSTAT3 (MFI) in monocytes at 0.001 µM: 4510 MFI
pSTAT3 (MFI) in monocytes at 0.01 µM: 4360 MFI
pSTAT3 (MFI) in monocytes at 0.1 µM: 4280 MFI
pSTAT3 (MFI) in monocytes at 1 µM: 4640 MFI
pSTAT3 (MFI) in monocytes at 10 µM: 4840 MFI
pSTAT3 (MFI) in monocytes at 100 µM: 4880 MFI
B3: hIL10Ra_VHH14-hIL2Rg_VHH19, linker GGGS, tag his (bispecific antibody, not shown: small tags and cut ends)
chain: B2 chain
